In patent US20250041389A1, “ENHANCING ABSORPTION OF DIETARY COMPOUNDS TO PROMOTE HEALTH” (ARIZONA BOARD OF REGENTS ON BEHALF OF THE UNIVERSITY OF …, priority 2023, published 2025):

Legend:
[1] = Oral gavage of GUSB followed by curcumin in mice; assay of curcumin metabolites in serum and bone; assay type: in vivo, C57BI6 mice; settings: after oral administration of GUSB with curcumin; FIG. 1
From the text: Experimental Methods: Administer 140 U/g body weight of GUSB (E. coli-derived [Sigma G840]) orally via gavage (vs vehicle) to 10-week-old male C57BI6 mice.

[2] = Enzymatic activity of orally administered enzyme after passage through proteolytic sections of the GI tract; assay type: in vivo; settings: oral administration

B1: GUSB: Beta-glucuronidase enzyme; E. coli-derived [Sigma G840] in Example 1 (protein, UniProt P05804 1-603, looked up)
Beta-glucuronidase: MLRPVETPTREIKKLDGLWAFSLDRENCGIDQRWWESALQESRAIAVPGSFNDQFADADIRNYAGNVWYQREVFIPKGWAGQRIVLRFDAVTHYGKVWVNNQEVMEHQGGYTPFEADVTPYVIAGKSVRITVCVNNELNWQTIPPGMVITDENGKKKQSYFHDFFNYAGIHRSVMLYTTPNTWVDDITVVTHVAQDCNHASVDWQVVANGDVSVELRDADQQVVATGQGTSGTLQVVNPHLWQPGEGYLYELCVTAKSQTECDIYPLRVGIRSVAVKGEQFLINHKPFYFTGFGRHEDADLRGKGFDNVLMVHDHALMDWIGANSYRTSHYPYAEEMLDWADEHGIVVIDETAAVGFNLSLGIGFEAGNKPKELYSEEAVNGETQQAHLQAIKELIARDKNHPSVVMWSIANEPDTRPQGAREYFAPLAEATRKLDPTRPITCVNVMFCDAHTDTISDLFDVLCLNRYYGWYVQSGDLETAEKVLEKELLAWQEKLHQPIIITEYGVDTLAGLHSMYTDMWSEEYQCAWLDMYHRVFDRVSAVVGEQVWNFADFATSQGILRVGGNKKGIFTRDRKPKSAAFLLQKRWTGMNFGEKPQQGGKQ
enzyme levels in the body [1]: unchanged | enzymatic activity after passing through the proteolytic sections of the GI tract (stomach and duodenum) [2]: retain their enzymatic activity
